Source: article PMC4586593
Read-outs that look alike come from different tables or passages of the source.

Key:
[1] = molecular target: unphosphorylated smooth muscle myosin (SMM) filaments stabilized against ATP-induced disassembly (UniProt P10587)
[2] = molecular target: unphosphorylated smooth muscle myosin (SMM) filaments stabilized against ATP-induced disassembly (UniProt P10587); remark: listed apart in the source

“smooth muscle MLCK, short isoform, from chicken gizzard, unlabeled (enzyme)” showed a Kd [1] of 1.3 µM and a Kd [2] of 1.5 µM.
